According to patent US20050241007:

System: Frog Prince transposase (consensus, FP) (Rana pipiens)
Assay: cell_activity
Details: G418-resistant colony increase in HeLa cells

Sequence of Frog Prince transposase (consensus, FP) (Rana pipiens) (chain, as listed by the source): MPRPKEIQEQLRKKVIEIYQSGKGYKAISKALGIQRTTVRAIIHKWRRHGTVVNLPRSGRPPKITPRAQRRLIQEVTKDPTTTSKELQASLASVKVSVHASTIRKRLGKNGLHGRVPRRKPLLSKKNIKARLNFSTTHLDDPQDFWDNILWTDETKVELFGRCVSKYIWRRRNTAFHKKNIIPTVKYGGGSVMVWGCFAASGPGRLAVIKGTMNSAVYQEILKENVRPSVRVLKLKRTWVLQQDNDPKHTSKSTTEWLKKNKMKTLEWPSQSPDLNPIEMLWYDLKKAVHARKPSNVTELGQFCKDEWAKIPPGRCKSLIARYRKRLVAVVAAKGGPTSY

| Substance | activity (transposition) [fold] | activity (cross-mobilization) [fold] |
| --- | --- | --- |
| CAGTGGTGTGAAAAAGTGTTTGCCCCCTTCCTCATTTCCTGTTCCTTTGCATGTTTGTCACACTTAAGTGTTTCGGAACATCAAACCAATTTAAACAATAGTCAAGGACAACACAAGTAAACACAAAATGCAATTTGTAAATGAAGGTGTTTATTATTAAAGGTGAAAAAAAATCCAAACCATCATGGCCCTGTGTGAAAAAGTGATTGCCCCCCTTGTTAAAACATACTATAACTGTGGTTGTCCACAC (double strand) [Frog Prince transposon inverted repeat (pFrogPrince-neo)] | 17 | – |
| Txr transposon (pTxr-neo) | – | 5 |
